# Literature values in PMC7460888.
# Target: SARS-CoV-2 spike RBD RBD (SARS-CoV-2) (UniProt P0DTC2)
substance,measurement,value
SBP1 (ACE2 alpha1 helix peptide),Kd,47 nM
